Reference: the nanobody polyreactivity screen of Harvey et al. (2022)

Test: yeast display, Sf9 membrane polyspecificity reagent, FACS + sequencing; frameworks hold sequencing errors
Outline: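 Genes from sorted yeast were amplified by colony PCR, read by MiSeq 2 × 250 sequencing and filtered on CDR length. These cells carried a synthetic nanobody library in Saccharomyces cerevisiae BJ5465 and were sorted by FACS into low and high (top ~1%) gates on anti-HA and streptavidin fluorescence. Polyreactivity is labelled according to the gate of origin.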

Question: For “QVQLVESGGGLVQAGGSLRLSCAASGSIFSGNAMGWYRQAPGKERELVAAISSNGGRTYYADSVKGRFTISRDNAKNTVYLQMNSLKPEDTAVYYCAADSGKRRYGYYYWGQGTQVTVSS”, which “polyreactivity (PSR sort gate)” value is on record?
Answer: The value was “high polyreactivity”.

Question: For “QVQLVESGGGLVQAGGSLRLSCAASGFIFQHYAMGWYRQAPGKERELVAAISKSGGSTYYADSVKGRFTISRDNAKNTVYLQMNSLKPEDTAVYYCAKVAVAGRGSGNYINHRFDYWGQGTQVTVSS”, which “polyreactivity (PSR sort gate)” value is on record?
Answer: The value was “high polyreactivity”.

Question: Which “polyreactivity (PSR sort gate)” value does the source give for “KVQLVESGGGLVQAGGSLRLSCAASGRIFVGYAMGWYRQAPGKERELVAAINRSGSSTYYADSVKGRFTISRYNAKNTVYLQMNSLKPEDTAVYYCNARSGKRYGPRYDYWGQGTQVNVSS” here?
Answer: The value was “high polyreactivity”.

Question: With “QVQLVESGGGLVQAGGSLRLSCAASGSLFYFYAMGWYRQAPGKERELVAAISSGGSTYYADSVKGRFTISRDNAKNTVYLQMNSLKPEDTEVYYCAADSLYYRYDYWGQGTQVTVSS” as the sequence, how does the “polyreactivity (PSR sort gate)” value read?
Answer: The value was “low polyreactivity”.

Question: Which “polyreactivity (PSR sort gate)” value does the source give for “QVQLVESGGGLVQAGGSLRLSCAASGFTFYDYAMGWYRQAPGKQREFVAAITWSGSSTYYADSVKGRFTISRDNAMNTVYLQMKSMKPEDTEVYYCAVGPFRRRGHYPTYYRYGYWGQGTEVTVSS” here?
Answer: Its value is “high polyreactivity”.

Question: For “QVQLVESGGGLVQAGGSLRLSCAASGGTFSPYDMGWYRQAPGKERELVASITGSGGSTYYADSVKGRFTISRGNAKNTVYLQMNSLKPEETAVYYCAAQGYWTYWPYLLRLYDYWGQGTQVTVSS”, which “polyreactivity (PSR sort gate)” value is on record?
Answer: The value was “low polyreactivity”.

Question: For “QVQHVESGGGLVQAGGSLRLSCAASGSIFTVYAMGWYRQAPGKERELVAGITSGGNTNYADSVKGRFTISRDNAKNTVYLQMNSLKPEDTAVYYCAARIYGYVTYGYWGQGTQVTVSS”, which “polyreactivity (PSR sort gate)” value is on record?
Answer: Its value is “low polyreactivity”.

Question: With “QVQLVESCGGLVQAGGSLRLSFAASGSILVRYAMGWYRQAPGKERELVAAITSGGSTYADSVKGRFTISRDNAKNTVYLQMNSLKPEDTAVYYCAADAYGYGGDSWGQGTLVTVSS” as the sequence, how does the “polyreactivity (PSR sort gate)” value read?
Answer: Its value is “low polyreactivity”.

Question: For “QVQLVESGGGLVQAGGRLRLTCAASGRIFVIYAMRWYRQAPGKERELVAGITRGDRTYADSVKARFTISRDNAKNTVYLQMNSLKPEDTAVYYCNADTGYRFDYWGQGTQVTVSS”, which “polyreactivity (PSR sort gate)” value is on record?
Answer: The value was “high polyreactivity”.

Question: Which “polyreactivity (PSR sort gate)” value does the source give for “QVQLVESGGGLVQAGGSLRLSCAASGRTYVRDTMGWYRQAPGQERQLVAAITWSGGSTYYADSVKGRFTISRDNAKNTVYLQMNSLKPEDTAVYYCARRYSPHTSVSYYSWGQGNQVTVSS” here?
Answer: The value was “high polyreactivity”.

Question: For “QVQLVESGGGLVQAGGSLRLSCAASGRIFYYNTMGWYRQAPGKARELVAAITTNGGSTYYADSVKGRFTISRDNAKNTVYLQMNSPKPEDTAVYYCNRDRYPYYYAYNYWGQGTQVTVSS”, which “polyreactivity (PSR sort gate)” value is on record?
Answer: Its value is “low polyreactivity”.

Question: Which “polyreactivity (PSR sort gate)” value does the source give for “QVQLVESGGGLVQAGGSLRLSCAASGRIFRYYSMGWYRQAPGKERELVAAISGGGSTYYADSVKGRFTISRDNAKNTVYLQMNSLKPEDTAVYYCAALRSSQSKGDYWGQGTQVTVSS” here?
Answer: The value was “high polyreactivity”.

Question: With “QVQLVESGGGLVQAGGSLRLSCAASGRTFKYYAMGWYRQAPGKERELVAAISYSGGSTYYADSVKGRFTISRDNAKNTVYLQMNSLKPEDTAVYYCAARFTRYYSGGDQKYDYWGQVTQVTVSS” as the sequence, how does the “polyreactivity (PSR sort gate)” value read?
Answer: The value was “high polyreactivity”.

Question: With “QVQLVESGGGLVQAGGSLRLSCAASGFTFSYYAMGWYRQAPGKERELVAAISWSGGSTYSADSVKGRFTISRDNAKNTVYLQMNSLKPEDTAVYYCAAEVYFLATGTWYDYWGQGTQVTVSS” as the sequence, how does the “polyreactivity (PSR sort gate)” value read?
Answer: Its value is “high polyreactivity”.

Question: Which “polyreactivity (PSR sort gate)” value does the source give for “QVQLVESGAGLVLAGGSLRLSCAASGRTFRLYAMGWYRQAPGKERELVAAISYSDGRTYYADSVKGRFTISRDNAKNTVYLQMNSLKPEDTAVYYCAAETLYVAGSYYWGQGTQVTVSS” here?
Answer: Its value is “high polyreactivity”.

Question: For “QVQLVESGGGLVQAGGSLRLSCAASGRIFWTYAMGWYRQAPGKERELVASITWSGGSTYYADSVKGRFTISRDNAKNTVYLQMNSLKPEDTAVYYCAADRHTYWYDYWGQGTQVTVSS”, which “polyreactivity (PSR sort gate)” value is on record?
Answer: Its value is “low polyreactivity”.

Question: For “QVQLVESGGGLVQAGGRLRLSCAASGRIYRRNTMGWYRQAPGKERELVAAITSSGGSTYADSVKGRFTISRDNAKNTVYLQMNSLKPEDTAVYYCATYVAYHRGYRTYDHWGQGTQVTVSS”, which “polyreactivity (PSR sort gate)” value is on record?
Answer: Its value is “low polyreactivity”.

Question: Which “polyreactivity (PSR sort gate)” value does the source give for “QVQLVESGGGLVQAGGSLRLSCAASGRTFSLYAMGRYRQAPGKERELVAGISSSGGSTYYADSVKGRFTISRDNAKNTVYLQMNSLKQEDTAFYYCAAYRNTVIRNSDYWGQGTQVTVSS” here?
Answer: Its value is “high polyreactivity”.

Question: For “QVQLVESGGGLVQAGGSLRLSCAASGIIFLYYAMGWYRQAPGKERELVAAISSGGSTYYADSVKGRFTISRDNAKNTFYLQLNSLKPEDTAVYYCAVGRVGRFYYWGQGTQVSVSS”, which “polyreactivity (PSR sort gate)” value is on record?
Answer: The value was “high polyreactivity”.

Question: Which “polyreactivity (PSR sort gate)” value does the source give for “QVQHVESGGGLVQAGGSLRLSCAASGSTFVVYAMGWYRQAPGKERELVAAINWSGGSTYYADSVKGRFTISRDNAKNTVYLQMNSLKPEDTAVYYCSAYGVTYRGDYDYWGQGTQVTVSS” here?
Answer: Its value is “low polyreactivity”.

Question: For “QVQLVESVGGLVQAGASLRLTCAASGSIFWYAMGWYRQAPRQERELVAGISRGGSTYYADSVKGRFTISRDNAKNTVYLQMNSLKPEDTAVYYCNTAGYYGTPSNYWGQGTQVTVSS”, which “polyreactivity (PSR sort gate)” value is on record?
Answer: Its value is “low polyreactivity”.

Question: Which “polyreactivity (PSR sort gate)” value does the source give for “QVQLVESGGGLVQAGGSLRLSCAASGFTFYVNAMGWYRQAPGKERELVAAITYDGDSTYYADSVKGRFTISRDNAKNTVYLQMNSLKPEDTAVYYRNTVYGPDLDGTEYDYWGQGTQVTVSS” here?
Answer: Its value is “low polyreactivity”.

Question: For “QVQLVESGGGLVQAGGSLRLSCAASGRTFLYNTMGWYRQAPGKERELVAVISIDGGGTYADSVKGRFTISRDNAKNNVYLQMNSLKPEDTAVYDCAVDALCITYGYWGQGTQVTVSS”, which “polyreactivity (PSR sort gate)” value is on record?
Answer: The value was “low polyreactivity”.

Question: For “QVQLQESAGGLVQAGGSLRLSCAASGTISTDSYMGWYRQAPGKERKFVATIGYGGITYYADSVKGRSTISRDSAKNTVYLQMNSLKPEDTAVYYCAVNSYYPDHYWYWGRGTQVTVSS”, which “polyreactivity (PSR sort gate)” value is on record?
Answer: The value was “high polyreactivity”.

Question: With “QVQLVESAGGLVQAGGSLRLSCAASGRNFYRNAMGWYRQAPGKERELVAAISYSGGSTYYADSVKGRFTISRDNAKNTVYLQMNSLKPEDTAVYYFAAAGDRWGNYWGQGTLVTVSS” as the sequence, how does the “polyreactivity (PSR sort gate)” value read?
Answer: The value was “high polyreactivity”.

Question: For “QVQLVESGGGLVQAGGSLRLSCAASGSTFGQYAMGWYRQAPGKERELVAAISSGGRTNYADSVKGRFTISRDNAKNTVYLQMNSLKPEDTAVYYCAARYYFPFRRFRRMDYWGQGTQVTVSS”, which “polyreactivity (PSR sort gate)” value is on record?
Answer: Its value is “high polyreactivity”.

Question: For “QVQLVESGGGLVQAGGSLRLSCAASGRIFHGNAMGWYRQAPGKERELVAAITSGGRTFYADSVKGRFTISRDNAKNTVYLQMNSLKPEDTAVYYCNAPSIAGYAEYNSHDYWGQGTQVTVSS”, which “polyreactivity (PSR sort gate)” value is on record?
Answer: Its value is “high polyreactivity”.

Question: With “QVQLVESGGCLVQAGGSLRLSCAASGSIFGAYVMGWYRQAPGKERELVAAITRRGGSTYYADSVKGRFTISRDNAKNTVYLQMNSLKPEDTAVYYCAARRGAGDGYWGQGTQVTVSS” as the sequence, how does the “polyreactivity (PSR sort gate)” value read?
Answer: Its value is “high polyreactivity”.

Question: Which “polyreactivity (PSR sort gate)” value does the source give for “QVQLVESGGGIVQAGGSLRLSCAASGSSINLYAMGWYRQAPGKERELVAAINDDAGSTYYADSVKGRFTISRDNAKNTVYLQMNSLKPEDTAVYYCNAGSRSTEYDYWGQGTQVTVSS” here?
Answer: Its value is “low polyreactivity”.

Question: For “QVQLVESGGGLVQAGGSLRLSCAASGITFFGYALGWYRQAPGKERELVADITTSDSTYYADSVKGRFTISRDNAKNTVYLQMNSLKPEDTAVYYCNADYYDGGYGPGVEEYDYWGQGTQVTVSS”, which “polyreactivity (PSR sort gate)” value is on record?
Answer: The value was “low polyreactivity”.

Question: Which “polyreactivity (PSR sort gate)” value does the source give for “QVQLVESGGGLVQAGGSLRLSCAASGGIFRSYTMGWYRQAPGKERELVAAISRSGGRTYYADSVKGRFTISRDNAKNTVYLQMNSLKPEDTAVYYCAAYVRSATLRVNYGYWGQGTQVTVSS” here?
Answer: Its value is “high polyreactivity”.

Question: Which “polyreactivity (PSR sort gate)” value does the source give for “QVQLVESGGGLVQAGGSLRLSCAASGSIFGGYGMGWYRQAPGKERELVAAITSGSSTYYADSVKGRFTISRDNAKNTVYLQMNSLKAEDTAVYYCAARPYTHSAYEGDYWGRGTQVTVSS” here?
Answer: Its value is “low polyreactivity”.
